Publication PMC11096021 (Immunity, 2024)

Target: A/Perth/16/2009 H3 trimer (biotinylated, for BLI) (Influenza A virus A/Perth/16/2009 (H3N2), strain, biotin on the avi tag (BirA))
Assay: BLI
Conditions: both partners purified

B1: 09–1B12 Fab (mature; Lys-C digest of recombinant IgG, used for BLI) (Fab, V domains shown)
VH: QVQLVQSAPEVKRPGASVRLSCKASGYTFNTYGIIWVRQAPGQGLEWMGWISAYTGNTNYAQKVQGRVTMTTDITTSTAYLELRGLRSDDTAVYYCARGLLQGAVILDSYHYALDFWGQGTTVTVSS
VL: EIVLTQSPGTLSLSPGERATLSCRASQSVTNRFIAWYQHKPGQSPRLLIYGASSRATGIPDRFSGRGSGTDFTLTISRLEPEDFAVYYCQQYDTSPRWTFGQGTKLEIK
binding result: binds
